The labels stand for the following.
B1: ADP287 (protein)
chain: MANPGLGLLLALGLPFLLARWGRAWGQIQTTSANENSTVLPSSTSSSSDGNLRPEAITA
modifications: also: human Fc-tagged dimer
B2: ADP152 (protein)
chain: MAPSSPRPALPALLVLLGALFPGPGNAQTSVSPSKVILPRGGSVLVTCSTSCDQPKLLGIETPLPKKELLLPGNNRKVYELSNVQEDSQPMCYSNCPDGQSTAKTFLTVYWTPERVELAPLPSWQPVGKNLTLRCQVEGGAPRANLTVVLLRGEKELKREPAVGEPAEVTTTVLVRRDHHGANFSCRTELDLRPQGLELFENTSAPYQLQTFVLPATPPQLVSPRVLEVDTQGTVVCSLDGLFPVSEAQVHLALGDQRLNPTVTYGNDSFSAKASVSVTAEDEGTQRLTCAVILGNQSQETLQTVTIYSFPAPNVILTKPEVSEGTEVTVKCEAHPRAKVTLNGVPAQPLGPRAQLLLKATPEDNGRSFSCSATLEVAGQLIHKNQTRELRVLYGPRLDERDCPGNWTWPENSQQTPMCQAWGNPLPELKCLKDGTFPLPIGESVTVTRDLEGTYLCRARSTQGEVTRKVTVNVLSP
modifications: bait human Fc-tagged dimer
B3: ADP382 (protein)
chain: TYDDGICKSSDCIKSAARLIQNMDATTEPCTDFFKYACGGWLKRNVIPETSSRYGNFDILRDELEVVLKDVLQEPKTEDIVAVQKAKALYRSCINESAIDSRGGEPLLKLLPDIYGWPVATENWEQKYGASWTAEKAIAQLNSKYGKKVLINLFVGTDDKNSVNHVIHIDQPRLGLPSRDYYECTGIYKEACTAYVDFMISVARLIRQEERLPIDENQLALEMNKVMELEKEIANATAKPEDRNDPMLLYNKMTLAQIQNNFSLEINGKPFSWLNFTNEIMSTVNISITNEEDVVVYAPEYLTKLKPILTKYSARDLQNLMSWRFIMDLVSSLSRTYKESRNAFRKALYGTTSETATWRRCANYVNGNMENAVGRLYVEAAFAGESKHVVEDLIAQIREVFIQTLDDLTWMDAETKKRAEEKALAIKERIGYPDDIVSNDNKLNNEYLELNYKEDEYFENIIQNLKFSQSKQLKKLREKVDKDEWISGAAVVNAFYSSGRNQIVFPAGILQPPFFSAQQSNSLNYGGIGMVIGHEITHGFDDNGRNFNKDGDLVDWWTQQSASNFKEQSQCMVYQYGNFSWDLAGGQHLNGINTLGENIADNGGLGQAYRAYQNYIKKNGEEKLLPGLDLNHKQLFFLNFAQVWCGTYRPEYAVNSIKTDVHSPGNFRIIGTLQNSAEFSEAFHCRKNSYMNPEKKCRVW
modifications: bait human Fc-tagged dimer
B4: ADP313 (protein)
chain: MAHLHHSCLCFRSWLPAMLAVLLSLAPSASSDISASRPNILLLMADDLGIGDIGCYGNNTMRTPNIDRLAEDGVKLTQHISAASLCTPSRAAFLTGRYPVRSGMVSSIGYRVLQWTGASGGLPTNETTFAKILKEKGYATGLIGKWHLGLNCESASDHCHHPLHHGFDHFYGMPFSLMGDCARWELSEKRVNLEQKLNFLFQVLALVALTLVAGKLTHLIPVSWMPVIWSALSAVLLLASSYFVGALIVHADCFLMRNHTITEQPMCFQRTTPLILQEVASFLKRNKHGPFLLFVSFLHVHIPLITMENFLGKSLHGLYGDNVEEMDWMVGRILDTLDVEGLSNSTLIYFTSDHGGSLENQLGNTQYGGWNGIYKGGKGMGGWEGGIRVPGIFRWPGVLPAGRVIGEPTSLMDVFPTVVRLAGGEVPQDRVIDGQDLLPLLLGTAQHSDHEFLMHYCERFLHAARWHQRDRGTMWKVHFVTPVFQPEGAGACYGRKVCPCFGEKVVHHDPPLLFDLSRDPSETHILTPASEPVFYQVMERVQQAVWEHQRTLSPVPLQLDRLGNIWRPWLQPCCGPFPLCWCLREDDPQ
modifications: bait human Fc-tagged dimer
B5: ADP309 (protein)
chain: MEAPAAGLFLLLLLGTWAPAPGSASSEAPPLINEDVKRTVDLSSHLAKVTAEVVLAHLGGGSTSRATSFLLALEPELEARLAHLGVQVKGEDEEENNLEVRETKIKGKSGRFFTVKLPVALDPGAKISVIVETVYTHVLHPYPTQITQSEKQFVVFEGNHYFYSPYPTKTQTMRVKLASRNVESYTKLGNPTRSEDLLDYGPFRDVPAYSQDTFKVHYENNSPFLTITSMTRVIEVSHWGNIAVEENVDLKHTGAVLKGPFSRYDYQRQPDSGISSIRSFKTILPAAAQDVYYRDEIGNVSTSHLLILDDSVEMEIRPRFPLFGGWKTHYIVGYNLPSYEYLYNLGDQYALKMRFVDHVFDEQVIDSLTVKIILPEGAKNIEIDSPYEISRAPDELHYTYLDTFGRPVIVAYKKNLVEQHIQDIVVHYTFNKVLMLQE
modifications: bait human Fc-tagged dimer
B6: ADP102 (protein)
chain: MARGAALALLLFGLLGVLVAAPDGGFDLSDALPDNENKKPTAIPKKPSAGDDFDLGDAVVDGENDDPRPPNPPKPMPNPNPNHPSSSGSFSDADLADGVSGGEGKGGSDGGGSHRKEGEEADAP
modifications: bait human Fc-tagged dimer
B7: ADP329 (protein)
chain: MAPPGSSTVFLLALTIIASTWALTPTHYLTKHDVERLKASLDRPFTNLESAFYSIVGLSSLGAQVPDAKKACTYIRSNLDPSNVDSLFYAAQASQALSGCEISISNETKDLLLAAVSEDSSVTQIYHAVAALSGFGLPLASQEALSALTARLSKEETVLATVQALQTASHLSQQADLRSIVEEIEDLVARLDELGGVYLQFEEGLETTALFVAATYKLMDHVGTEPSIKEDQVIQLMNAIFSKKNFESLSEAFSVASAAAVLSHNRYHVPVVVVPEGSASDTHEQAILRLQVTNVLSQPLTQATVKLEHAKSVASRATVLQKTSFTPVGDVFELNFMNVKFSSGYYDFLVEVEGDNRYIANTVELRVKISTEVGITNVDLSTVDKDQSIAPKTTRVTYPAKAKGTFIADSHQNFALFFQLVDVNTGAELTPHQTFVRLHNQKTGQEVVFVAEPDNKNVYKFELDTSERKIEFDSASGTYTLYLIIGDATLKNPILWNVADVVIKFPEEEAPSTVLSQNLFTPKQEIQHLFREPEKRPPTV
modifications: bait human Fc-tagged dimer
B8: ADP142 (protein)
chain: MGLGARGAWAALLLGTLQVLALLGAAHESAAMAASANIENSGLPHNSSANSTETLQHVPSDHTNETSNSTVKPPTSVASDSSNTTVTTMKPTAASNTTTPGMVSTNMTSTTLKSTPKTTSVSQNTSQISTSTMTVTHNSSVTSAASSVTITTTMHSEAKKGSKFDTGS
modifications: bait human Fc-tagged dimer
B9: ADP285 (protein)
chain: LTQGYNNWTNGLYGYSWDMMVHSRSHQHVKITYRDGRTGELGYLNPGVFTQSRRWKDHADMLKQYATCLSRLLPKYNVTEPQIYFDIWVSINDRFQQRIFDPRVDIVQAAWSPFQRTSWVQPLLMDLSPWRAKLQEIKSSLDNHTEVVFIADFPGLHLENFVSEDLGNTSIQLLQGEVTVELVAEQKNQTLREGEKMQLPAGEYHKVYTTSPSPSCYMYVYVNTTELALEQDLAYLQELKEKVENGSETGPLPPELQPLLEGEVKGGPEPTPLVQTFLRRQQRLQEIERRRNTPFHERFFRFLLRKLYVFRRSFLMTCISLRNLILGRPSLEQLAQEVTYANLRPFEAVGELNPSNTDSSHSNPPESNPDPVHSEF
modifications: bait human Fc-tagged dimer
B10: ADP097 (protein)
chain: SPPRKREEAAAVPAAAPDDLALLKNLRSEEQKKKNRKKLSEKPKPNGRTVEVAEGEAVRTPQSVTAKQPPEIDKKNEKSKKNKKKSKSDAKAVQNSSRHDGKEVDEGAWETKISHREKRQQRKRDKVLTDSGSLDSTIPGIENTITVTTEQLTTASFPVGSKKNKGDSHLNVQVSNFKSGKGDSTLQVSSGLNENLTVNGGGWNEKSVKLSSQISAGEEKWNSVSPASAGKRKTEPSAWSQDTGDANTNGKDWGRSWSDRSIFSGIGSTAEPVSQSTTSDYQWDVSRNQPYIDDEWSGLNGLSSADPNSDWNAPAEEWGNWVDEERASLLKSQEPIPDDQKVSDDDKEKGEGALPTGKSKKKKKKKKKQGEDNSTAQDTEELEKEIREDLPVNTSKTRPKQEKAFSLKTISTSDPAEVLVKNSQPIKTLPPATSTEPSVILSKSDSDKSSSQVPPILQETDKSKSNTKQNSVPPSQTKSETSWESPKQIKKKKKARRET
modifications: bait human Fc-tagged dimer
B11: ADP390 (protein)
chain: GTDDATADSRKTYTLTDYLKNTYRLKLYSLRWISDHEYLYKQENNILVFNAEYGNSSVFLENSTFDEFGHSINDYSISPDGQFILLEYNYVKQWRHSYTASYDIYDLNKRQLITEERIPNNTQWVTWSPVGHKLAYVWNNDIYVKIEPNLPSYRITWTGKEDIIYNGITDWVYEEEVFSAYSALWWSPNGTFLAYAQFNDTEVPLIEYSFYSDESLQYPKTVRVPYPKAGAVNPTVKFFVVNTDSLSSVTNATSIQITAPASMLIGDHYLCDVTWATQERISLQWLRRIQNYSVMDICDYDESSGRWNCLVARQHIEMSTTGWVGRFRPSEPHFTLDGNSFYKIISNEEGYRHICYFQIDKKDCTFITKGTWEVIGIEALTSDYLYYISNEYKGMPGGRNLYKIQLSDYTKVTCLSCELNPERCQYYSVSFSKEAKYYQLRCSGPGLPLYTLHSSVNDKGLRVLEDNSALDKMLQNVQMPSKKLDFIILNETKFWYQMILPPHFDKSKKYPLLLDVYAGPCSQKADTVFRLNWATYLASTENIIVASFDGRGSGYQGDKIMHAINRRLGTFEVEDQIEAARQFSKMGFVDNKRIAIWGWSYGGYVTSMVLGSGSGVFKCGIAVAPVSRWEYYDSVYTERYMGLPTPEDNLDHYRNSTVMSRAENFKQVEYLLIHGTADDNVHFQQSAQISKALVDVGVDFQAMWYTDEDHGIASSTAHQHIYTHMSHFIKQCFSLP
modifications: bait human Fc-tagged dimer
B12: ADP148 (protein)
chain: MASWIGAVILPLLGLLLSLPAGADVKARSCGEVRQAYGAKGFSLADIPYQEIAGEHLRICPQEYTCCTTEMEDKLSQQSKLEFENLVEETSHFVRTTFVSRHKKFDEFFRELLENAEKSLNDMFVRTYGMLYMQNSEVFQDLFTELKRYYTGGNVNLEEMLNDFWARLLERMFQLINPQYHFSEDYLECVSKYTDQLKPFGDVPRKLKIQVTRAFIAARTFVQGLTVGREVANRVSKVSPTPGCIRALMKMLYCPYCRGLPTVRPCNNYCLNVMKGCLANQADLDTEWNLFIDAMLLVAERLEGPFNIESVMDPIDVKISEAIMNMQENSMQVSAKVFQGCGQPKPAPALRSARSAPENFNTRFRPYNPEERPTTAAGTSLDRLVTDIKEKLKLSKKVWSALPYTICKDESVTAGTSNEEECWNGHSKARYLPEIMNDGLTNQINNPEVDVDITRPDTFIRQQIMALRVMTNKLKNAYNGNDVNFQDTSDESSGSGSGSGCMDDVCPTEFEFVTTEAPAVDPDRREVDSS
modifications: bait human Fc-tagged dimer
B13: ADP362 (protein)
chain: MARAALWLWLCALALSLQPALPQIVATNLPPEDQDGSGDDSDNFSGSGAGALQDITLSQQTPSTWKDTQLLTAIPTSPEPTGLEATAASTSTLPAGEGPKEGEAVVLPEVEPGLTAREQEATPRPRETTQLPTTHLASTTTATTAQEPATSHPHRDMQPGHHETSTPAGPSQADLHTPHTEDGGPSATERAAEDGASSQLPAAEGSGEQDFTFETSGENTAVVAVEPDRRNQSPVDQGATGASQGLLDRKEVLG
modifications: bait human Fc-tagged dimer

No end group written: not given here.

The assay concerns the target Circumsporozoite protein (CSP) (Plasmodium falciparum (isolate 3D7), UniProt Q7K740). The experiment in a line: AVEXIS screen signal:noise (double-corrected).
Consider B1, for which the binding score amounted to 1.47.
With B2, the binding score was 1.23.
Molecule B3 showed a binding score of 0.577.
Consider B4, for which the binding score was found to be 0.959.
The value for B5 was 1.06; that for B6 was 0.919.
Molecule B7 showed a binding score of 0.882.
The value for B8 was 0.7.
Consider B9, for which the binding score is 0.774.
In the case of B10, the binding score came out at 1.17.
Consider B11, for which the binding score stood at 0.756.
The molecule B12 registered a binding score of 0.913.
In turn, B13 showed a binding score of 0.594.

The values are drawn from PMC11098746 (2024).
